# B1: bPTH(1-84): full-length (complete) parathyroid hormone, bovine source; comparative example (protein, UniProt P01268 32-115, looked up)
# Parathyroid hormone: AVSEIQFMHNLGKHLSSMERVEWLRKKLQDVHNFVALGASIAYRDGSSQRPRKKEDNVLVESHQKSLGEADKADVDVLIKAKPQ
# modifications: Parathyroid hormone
# Key:
# [1] = test system: rat organs (epiphysis, diaphysis, kidney); assay: [3H]thymidine incorporation into DNA in rat organs after i.p. injection; assay type: in vivo; conditions: rat, 22-24 h after injection of 3.5 μg
# [2] = test system: osteoblast enriched rat embryo calvaria cell cultures; assay: Cyclic AMP production in rat embryo calvaria cell cultures; assay type: cell-based; conditions: 100 nM; 15 min; control 29 ± 2.9 pmol/mg of protein
# How it was run: (§1)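 Osteoblast-enriched rat embryo calvaria cultures stimulated with PTH fragments from the central portion of the molecule. Cyclic AMP measured 15 min after stimulation; CK specific activity measured 24 h after stimulation. Values are means ±S.E.M., N≥5, compared with controls by Student's T test.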
# [3] = test system: ROS 17/2.8 osteoblast-like cells; assay: Cyclic AMP production in ROS 17/2.8 osteoblast-like cells; assay type: cell-based, rat
# Experimental: When cultures of the widely used model for osteoblasts, the osteoblast-likeclone of rat osteosarcoma, ROS 17/2.8 (Endocrinology (Baltimore), 107 (1980) 1494-1503=12; Majeska et al.), were incubated with full-length PTH and PTH fragments (Table 4), cyclic AMP production was stimulated only by bPTH(1-84) and hPTH(1-34), whereas hPTH(25-39), hPTH(27-48), hPTH(28-48) and hPTH(34-47) were ineffective.
# [4] = test system: rat epiphysial cartilage cell cultures; assay: CK specific activity in rat epiphysial cartilage cell cultures; assay type: cell-based
# Experimental: To compare the stimulations seen in osteoblast-like cells (FIGS. 10 and 11) with PTH effects in a cartilage system, cultures of rat epiphysial cartilage cells were incubated with full-length PTH and selected PTH fragments (Table 3). CK activity was stimulated by bPTH(1-84) and hPTH(28-48) but not by hPTH(25-39) or hPTH(34-47). […] The comparison between the complete molecule and the mid-regional fragment hPTH (28-48) is similar to but not identical with the results obtained for calvaria cell cultures (FIGS. 10 and 11) and in the chick sternum chondrocyte system; cf. Biochem. J., 252 (1988) 263-268 (11; Farndale et al.),
# [5] = test system: ROS 17/2.8 osteoblast-like cells; assay: DNA synthesis in ROS 17/2.8 osteoblast-like cells; assay type: cell-based, rat; conditions: 10 nM; control 392 ± 58 c.p.m./μg of DNA
# [6] = test system: rat organs (epiphysis, diaphysis, kidney); assay: [3H]thymidine incorporation into DNA in rat organs after i.p. injection; assay type: in vivo; conditions: 22-24 h after injection
# Experimental: FIG. 12 is a graph showing the time course of stimulation by hPTH (1-34) of DNA synthesis in rat organs. Female rats (20-25 days old) were injected i.p. with hPTH-(1-34) (2 μg/rat). At 2 h before the times indicated, the rats were killed and organs were removed and incubated in 2 ml of Dulbecco's modified Eagle's medium containing 5 μl of [^3 H]thymidine. (Amersham: 5 Ci/mmol) for 2 h, then washed with medium and homogenized in deionized distilled water. The total uptake of [^3 H]thymidine and acid-insoluble radioactivity was measured, as well as DNA content, as described below. , Diaphysis; O, epiphysis; Δ; kidney. P<0.01 versus controls.
# The pieces were then incubated for 2 h more (the time indicated in FIG. 12) with [^3 H]thymidine (5 μci/ml; 5 Ci/mmol) at 37° C. in Dulbecco's modified Eagle's medium under an atmosphere Of […] /95% air. Total [^3 H]thymidine uptake and incorporation into trichloroacetic acid-insoluble material was measured as described in Biochem. J., 214 (1983) 293-298 (16; Somjen et al.). At no time including the 22 24 h pulse, was there any significant change in the total uptake of [^3 H]thymidine which reflects changes in the thymidine pool which, in turn, could account for changes in incorporation. DNA was determined by the Burton method; cf. Biochem. J., 62 (1956) 315-323 (17; Burton).
# To corroborate that under the circumstances of these experiments the increase in CK specific activity in bone is indeed a valid marker of cell proliferation, changes in DNA synthesis were measured by [^3 H]thymidine incorporation; cf. Biochem. J., 272 (1990) 781-785 (18; Somjen et al.). The earliest time at which PTH increased [^3 H]thymidine incorporation was determined by in-jecting rats with an optimal dose of 2 μp of PTH(1-34)/rat, equivalent to 13 nM (FIG. 14) and measuring 2 h pulses of [^3 H)thymidine incorporation into DNA (FIG. 12).
# [7] = test system: rat epiphysial cartilage cell cultures; assay: DNA synthesis in rat epiphysial cartilage cell cultures; assay type: cell-based; conditions: 10 nM; control 350 ± 25
# [8] = test system: osteoblast enriched rat embryo calvaria cell cultures; assay: CK specific activity in rat embryo calvaria cell cultures; assay type: cell-based
# How it was run: as §1
# [9] = test system: osteoblast enriched rat embryo calvaria cell cultures; assay: DNA synthesis ([3H]thymidine incorporation) in rat embryo calvaria cell cultures; assay type: cell-based
# How it was run: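 Cultures stimulated with bPTH (1-84); [3H]thymidine incorporation into DNA measured 24 h after stimulation. Values are means ±S.E.M., N≥5, compared with controls by Student's t test.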
# [10] = test system: ROS 17/2.8 osteoblast-like cells; assay: CK specific activity in ROS 17/2.8 osteoblast-like cells; assay type: cell-based, rat; conditions: 10 nM; control 698 ± 70 nmol/min per mg of protein
molecule,measurement,setting,value
B1,"[^3 H]thymidine incorporation into DNA, Kidney",[1]; control 9.0 ± 2.1,11.8 ± 2.4 c.p.m./pg of DNA
same,"[^3 H]thymidine incorporation into DNA, Diaphysis",[1]; control 24.1 ± 3.8,43.4 ± 4.7 c.p.m./pg of DNA
same,"[^3 H]thymidine incorporation into DNA, Epiphysis",[1]; control 25.8 ± 5.2,40.7 ± 3.3 c.p.m./pg of DNA
same,"Cyclic AMP concentration, effect of fragment (experimental value/control value)",[2],3.74 ± 0.30
same,stimulation of cyclic AMP production (in words),[3],stimulated
same,"Cyclic AMP, effect of fragment (experimental value/control value)","[3]; 10 nM, control 29 ± 5.2 pmol/mg of protein",4.60 ± 0.10
same,stimulation of CK activity (in words),[4],stimulated
same,CK specific activity,"[4]; 10 nM, control 225 ± 32",389 ± 39 nmol/min per mg of protein
same,"[^3 H]Thymidine incorporation, effect of fragment (experimental value/control value)",[5],1.71 ± 0.18
same,stimulation of DNA synthesis in the kidney (in words),[6],no significant stimulation
same,[^3 H]Thymidine incorporation into DNA,[7],556 ± 50 c.p.m./plate
same,"CK specific activity, effect of fragment (experimental value/control value)","[8]; 100 nM, 24 h, control 457 ± 46 nmol/min per mg of protein",2.27 ± 0.09
same,increase of CK activity (in words),[8]; treated for 24 h,maximally active
same,stimulation of DNA synthesis (in words),[9],maximal
same,"[3H)Thymidine incorporation, effect of fragment (experimental value/control value)","[9]; 100 nM, 24 h, control 624 ± 73 c.p.m./μg of DNA",2.61 ± 0.11
same,"CK specific activity, effect of fragment (experimental value/control value)",[10],1.92 ± 0.11
